From US20180177842A1 (CANIMGUIDE THERAPEUTICS, published 2018)

T1: P3028 (VFDEFKPLVEEPQNLIK, SEQ ID NO: 185), His-tagged (human)
T1 construct: Synthetic fragment of human serum albumin (positions 397-413); used in solution as His-tagged peptide PGE73; also called PGE73; not shown: His-tag
T1 peptide: VFDEFKPLVEEPQNLIK


Biological target: T1, P3028 (VFDEFKPLVEEPQNLIK, SEQ ID NO: …)
Assay: PEPSCAN ELISA; peptide on chip, His-P3028 added;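 note: peroxidase color development with ABTS and H2O2 substrate, OD405 imaged by CCD camera with image processing and taken as raw values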
Description: After washing, the peroxidase substrate 2,2′-azine-di-3-ethylbenzthiazoline sulfonate (ABTS) and 2 μL of 3% H2O2 were added. The binding capacity of the mAb was measured as a color development at 405 nm (optical density, OD405). The color development was quantified with a charge-coupled device (CCD)—camera and an image processing system.
The OD405-values obtained by a CCD-camera was considered as raw data values (“rampo values,” “rampo units,” or “rampo scores”). […] First the CCD-camera made a picture of the card before peroxidase coloring and then again a picture after the peroxidase coloring. […] These values were copied into an excel file and labeled as a raw data file. […] Sometimes a well can contain an air-bubble resulting in a false-positive value. If manual inspection of the cards detect an air-bubble the value are set to 0 for well.

Compared with KKLDTFFVKLFLFTER [KKLDTFFVKLFLFTER (SEQ ID NO: 522)], KKLDTFFVKLSLFQER [KKLDTFFVKLSLFQER (SEQ ID NO: 493)] is higher in “RAMPO Score” value: 250 rampo units for the first, 301 rampo units for the second.

Going from KKLDTFFVKLKLFTER [KKLDTFFVKLKLFTER (SEQ ID NO: 473)] to KKLDTFFVKLSLYTER [KKLDTFFVKLSLYTER (SEQ ID NO: 503)], the “RAMPO Score” value falls from 323 rampo units to 291 rampo units.

First: KKLDTFFVKLSLRTER [KKLDTFFVKLSLRTER (SEQ ID NO: 371)]
Second: KKLDTFFVKLSLFRER [KKLDTFFVKLSLFRER (SEQ ID NO: 33)]
The “RAMPO Score” value of the first is higher: 502 rampo units for the first, 264 rampo units for the second.

Going from KKLDTFFVKLSHFTER [KKLDTFFVKLSHFTER (SEQ ID NO: 351)] to KKLDTFFVKLSLFSER [KKLDTFFVKLSLFSER (SEQ ID NO: 384)], the “RAMPO Score” value falls from 460 rampo units to 369 rampo units.

Compared with KKLDTFFVKLSLFTEF [KKLDTFFVKLSLFTEF (SEQ ID NO: 388)], KKLDTFFVKLSLPTER [KKLDTFFVKLSLPTER (SEQ ID NO: 369)] is higher in “RAMPO Score” value: 297 rampo units for the first, 696 rampo units for the second.

Compared with KKLDTFFVKLSLFTRR [KKLDTFFVKLSLFTRR (SEQ ID NO: 531)], KKLDTFFVKLSLFTEY [KKLDTFFVKLSLFTEY (SEQ ID NO: 393)] is higher in “RAMPO Score” value: 237 rampo units for the first, 311 rampo units for the second.

First: KKLDTFFVKLSLFTEN [KKLDTFFVKLSLFTEN (SEQ ID NO: 390)]
Second: KKLDTFFVKLSIFTER [KKLDTFFVKLSIFTER (SEQ ID NO: 352)]
The “RAMPO Score” value of the first is lower: 311 rampo units for the first, 456 rampo units for the second.

First: KKLDTFFVKLMLFTER [KKLDTFFVKLMLFTER (SEQ ID NO: 346)]
Second: KKLDTFFVKLSLFFER [KKLDTFFVKLSLFFER (SEQ ID NO: 376)]
The “RAMPO Score” value of the first is higher: 744 rampo units for the first, 348 rampo units for the second.

First: KKLDTFFVKLSLFTET [KKLDTFFVKLSLFTET (SEQ ID NO: 392)]
Second: KKLDTFFVKLSLFCER [KKLDTFFVKLSLFCER (SEQ ID NO: 520)]
The “RAMPO Score” value of the first is higher: 292 rampo units for the first, 254 rampo units for the second.

First: KKLDTFFVKLSAFTER [KKLDTFFVKLSAFTER (SEQ ID NO: 350)]
Second: KKLDTFFVKLSLVTER [KKLDTFFVKLSLVTER (SEQ ID NO: 374)]
The “RAMPO Score” value of the first is higher: 462 rampo units for the first, 446 rampo units for the second.

First: KKLDTFFVKLSLTTER [KKLDTFFVKLSLTTER (SEQ ID NO: 373)]
Second: KKLDTFFVKLSLFTEH [KKLDTFFVKLSLFTEH (SEQ ID NO: 528)]
The “RAMPO Score” value of the first is higher: 494 rampo units for the first, 239 rampo units for the second.

Compared with KKLDTFFVKLSLFNER [KKLDTFFVKLSLFNER (SEQ ID NO: 382)], KKLDTFFVKLSLFTMR [KKLDTFFVKLSLFTMR (SEQ ID NO: 524)] is lower in “RAMPO Score” value: 599 rampo units for the first, 247 rampo units for the second.

Going from KKLDTFFVKLSLFTHR [KKLDTFFVKLSLFTHR (SEQ ID NO: 478)] to KKLDTFFVKLRLFTER [KKLDTFFVKLRLFTER (SEQ ID NO: 464)], the “RAMPO Score” value rises from 318 rampo units to 333 rampo units.

First: KKLDTFFVKLSLITER [KKLDTFFVKLSLITER (SEQ ID NO: 365)]
Second: KKLDTFFVKLSCFTER [KKLDTFFVKLSCFTER (SEQ ID NO: 455)]
The “RAMPO Score” value of the first is higher: 468 rampo units for the first, 342 rampo units for the second.

First: KKLDTFFVKLSLFTYR [KKLDTFFVKLSLFTYR (SEQ ID NO: 459)]
Second: KKLDTFFVKLSLNTER [KKLDTFFVKLSLNTER (SEQ ID NO: 368)]
The “RAMPO Score” value of the first is lower: 340 rampo units for the first, 862 rampo units for the second.

Going from KKLDTFFVKLSFFTER [KKLDTFFVKLSFFTER (SEQ ID NO: 422)] to KKLDTFFVKLSLFTPR [KKLDTFFVKLSLFTPR (SEQ ID NO: 439)], the “RAMPO Score” value falls from 389 rampo units to 351 rampo units.

Going from KKLDTFFVKLSLGTER [KKLDTFFVKLSLGTER (SEQ ID NO: 363)] to KKLDTFFVKLPLFTER [KKLDTFFVKLPLFTER (SEQ ID NO: 470)], the “RAMPO Score” value falls from 531 rampo units to 328 rampo units.

Going from KKLDTFFVKLSLCTER [KKLDTFFVKLSLCTER (SEQ ID NO: 362)] to KKLDTFFVKLSGFTER [KKLDTFFVKLSGFTER (SEQ ID NO: 431)], the “RAMPO Score” value falls from 400 rampo units to 370 rampo units.

Compared with KKLDTFFVKLSLFVER [KKLDTFFVKLSLFVER (SEQ ID NO: 385)], KKLDTFFVKLSLATER [KKLDTFFVKLSLATER (SEQ ID NO: 361)] is higher in “RAMPO Score” value: 380 rampo units for the first, 525 rampo units for the second.

First: KKLDTFFVKLSLFTDR [KKLDTFFVKLSLFTDR (SEQ ID NO: 387)]
Second: KKLDTFFVKLSLFPER [KKLDTFFVKLSLFPER (SEQ ID NO: 383)]
The “RAMPO Score” value of the first is lower: 404 rampo units for the first, 551 rampo units for the second.

Going from KKLDTFFVKLSLFTKR [KKLDTFFVKLSLFTKR (SEQ ID NO: 471)] to KKLDTFFVKLSLFTEV [KKLDTFFVKLSLFTEV (SEQ ID NO: 521)], the “RAMPO Score” value falls from 324 rampo units to 254 rampo units.

Going from KKLDTFFVKLHLFTER [KKLDTFFVKLHLFTER (SEQ ID NO: 345)] to KKLDTFFVKLSLFTLR [KKLDTFFVKLSLFTLR (SEQ ID NO: 525)], the “RAMPO Score” value falls from 535 rampo units to 246 rampo units.

First: KKLDTFFVKLILFTER [KKLDTFFVKLILFTER (SEQ ID NO: 505)]
Second: KKLDTFFVKLSLLTER [KKLDTFFVKLSLLTER (SEQ ID NO: 366)]
The “RAMPO Score” value of the first is lower: 289 rampo units for the first, 448 rampo units for the second.

Going from KKLDTFFVKLSMFTER [KKLDTFFVKLSMFTER (SEQ ID NO: 353)] to KKLDTFFVKLSLWTER [KKLDTFFVKLSLWTER (SEQ ID NO: 375)], the “RAMPO Score” value falls from 499 rampo units to 430 rampo units.

Going from KKLDTFFVKLSLSTER [KKLDTFFVKLSLSTER (SEQ ID NO: 372)] to KKLDTFFVKLQLFTER [KKLDTFFVKLQLFTER (SEQ ID NO: 348)], the “RAMPO Score” value rises from 635 rampo units to 768 rampo units.

Going from KKLDTFFVKLSLFIER [KKLDTFFVKLSLFIER (SEQ ID NO: 379)] to KKLDTFFVKLSLFHER [KKLDTFFVKLSLFHER (SEQ ID NO: 378)], the “RAMPO Score” value rises from 375 rampo units to 463 rampo units.

Going from KKLDTFFVKLNLFTER [KKLDTFFVKLNLFTER (SEQ ID NO: 347)] to KKLDTFFVKLSPFTER [KKLDTFFVKLSPFTER (SEQ ID NO: 497)], the “RAMPO Score” value falls from 451 rampo units to 297 rampo units.

Compared with KKLDTFFVKLSLFTEM [KKLDTFFVKLSLFTEM (SEQ ID NO: 529)], KKLDTFFVKLSNFTER [KKLDTFFVKLSNFTER (SEQ ID NO: 354)] is higher in “RAMPO Score” value: 238 rampo units for the first, 462 rampo units for the second.

Going from KKLDTFFVKLSLFKER [KKLDTFFVKLSLFKER (SEQ ID NO: 517)] to KKLDTFFVKLSLHTER [KKLDTFFVKLSLHTER (SEQ ID NO: 364)], the “RAMPO Score” value rises from 259 rampo units to 1050 rampo units.

Compared with KKLDTFFVKLGLFTER [KKLDTFFVKLGLFTER (SEQ ID NO: 99)], KKLDTFFVKLSLFYER [KKLDTFFVKLSLFYER (SEQ ID NO: 514)] is lower in “RAMPO Score” value: 288 rampo units for the first, 270 rampo units for the second.

Going from KKLDTFFVKLSLFTEK [KKLDTFFVKLSLFTEK (SEQ ID NO: 389)] to KKLDTFFVKLSKFTER [KKLDTFFVKLSKFTER (SEQ ID NO: 438)], the “RAMPO Score” value rises from 291 rampo units to 355 rampo units.

Compared with KKLDTFFVKLSLQTER [KKLDTFFVKLSLQTER (SEQ ID NO: 370)], KKLDTFFVKLSLMTER [KKLDTFFVKLSLMTER (SEQ ID NO: 367)] is higher in “RAMPO Score” value: 1140 rampo units for the first, 1190 rampo units for the second.

Compared with KKLDTFFVKLSLFLER [KKLDTFFVKLSLFLER (SEQ ID NO: 380)], KKLDTFFVKLSLFGER [KKLDTFFVKLSLFGER (SEQ ID NO: 377)] is lower in “RAMPO Score” value: 360 rampo units for the first, 343 rampo units for the second.

Compared with KKLDTFFVKLSQFTER [KKLDTFFVKLSQFTER (SEQ ID NO: 355)], KKLDTFFVKLSLFMER [KKLDTFFVKLSLFMER (SEQ ID NO: 381)] is lower in “RAMPO Score” value: 651 rampo units for the first, 501 rampo units for the second.

Compared with KKLDTFFVKLSLFAER [KKLDTFFVKLSLFAER (SEQ ID NO: 489)], KKLDTFFVKLSLFTQR [KKLDTFFVKLSLFTQR (SEQ ID NO: 450)] is higher in “RAMPO Score” value: 305 rampo units for the first, 344 rampo units for the second.

KKLDTFFVKLSLFWER [KKLDTFFVKLSLFWER (SEQ ID NO: 386)] was tested, and the “RAMPO Score” value was 374 rampo units.
